Reference: the nanobody polyreactivity screen of Harvey et al. (2022)

Assay: yeast display, Sf9 membrane polyspecificity reagent, FACS + sequencing; frameworks hold sequencing errors
Procedure, shortened: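 Nanobodies from a synthetic yeast display library (Saccharomyces cerevisiae BJ5465), induced 36–48 hours with galactose, were stained 1 hour at 4 °C with 10% biotinylated, detergent-solubilized Sf9 membrane reagent, enriched on streptavidin microbeads, then FACS-sorted. Anti-HA (expression) and streptavidin (reagent binding) fluorescence set low and high (top ~1%) gates. Polyreactivity labels come from the gate of origin. Genes were colony-PCR amplified, MiSeq 2 × 250 sequenced and filtered by CDR length.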

Sequence	polyreactivity (PSR sort gate)
QVQLVESGGGLVQAGGSLSLSCAASGSILQLYAMGWYRQAPGTERELVAAITESAGSKSYADSVKGRFTISRDNAKITVYLQMNSLKPEDTAVYYCNAEYSAYSGFDVEWSLDYDYWGQGTQVTVSS	low polyreactivity
QVQLVESGGGLVQAGGSLRLSCAASGSTFLLYAMGWYRQAPGKERELVATISWGGDGTYYADSVKGRFTISRDHAKNTDYLQMNSLKPDDTAVYDCAAQSYLVQFYFLYYYWGQGTQVTVSS	low polyreactivity
QVQLVESGGGLVQAGGSLRLSCAASGRISGGYAMGWYRQAPGKERELVAVISSGGRTYYADSVKGRFTISRDNAKNTVDLHMNSLKPEVTGVYYCNAYTWGIVDNYDYWGQGTQVTVSS	low polyreactivity
QVQVVESGGGLFQAGGSLRLSCAASGYIFRFNAMGWSRQAPGKERELVAVITSGARTYYADSVKGRFTISRDNAKNTVYFQINSLKPEDTAFYYFNAGARRYLYDYWGQGTQVTVSS	low polyreactivity
QVQLVESGGGLVQAGGSLRLSCAASGSIFLYNAMGWYRQAPGKERELVASITYGSGSTYYADSVKGRFTISRDNAKNTVYLQMNSLKPEDTAVYYCAATRYYRHGRYDSWGQGTQVTVSS	high polyreactivity
QVQLVESGGGLVQAGGSLRLSCAASGFTFKTNAMGWYRQAPGKERELVAAITSGGSTNYADSVKGRFTISRDNAKNTVYLQMNSLKPVDPAVYYCAADYGVWSEYAGWHAAFDYWGQGTQVTVSS	low polyreactivity
QVQLVESGGGLVQAGGSLRLSCAASGSTFYGYAMGWYRQAPGKERELVAVISRSGGSTYYADSVKGRFTISRDNAKNTVYLQMNILKPEDTAVYYCNARWSFSYTVWVDSYWGLDDYWGQGTQVTVSS	high polyreactivity
QVQLVESRGGLVQAGGSLRLSCAASGRIFWVNAMGWYRQAPGKERELVAVISRGGSTTYADSVKGRFTISRDNAKNTVYLQMNSLKPEDTAVYYCAADAYRHAFLYYGYDYWGQGTQVTVSS	low polyreactivity
QVQLLESGGGLVQAGGSLRLSCAASGSTFLANAMGWYRQAPGKERDLVAAISSSGGSTYYADSVKWRFTISRDNAKNTVYVQMNSLKPEDTAVYYCAAATASRYRLWGGYYYWGQGTQVTVSS	low polyreactivity
QVQLVESGGGLVQAGGSLRLSCAASGRNIQGYAMGWYRQAPGKESELVAAITLSGGSTYYADSVKGRFTISRDNAKNTVYLQMNSLKPEVTAVYYCNAYYPDEPSLYDYWGQGTQVTVSS	low polyreactivity
QVQLVESGGGLVQAGGSLRLSCAASGSTFYLNAMGSYRQAPGKERELVAAISSGGRTYYADSVKGRFPISRDNAKNTDYLQMNSLKPEDTAVYYCNAVRYLRGAYNYWGQGTQVTVSS	high polyreactivity
HVQLVESAGGLVQAGGSLRLSCAASGFIFGYYAMGWYRQAPGKERELVAAINYNDDSTYYADSVKGRFTISRDNAKNTVYLQMNSLKPEDTAVYYCAVRRWDAGDYWGQGTQVTVSS	low polyreactivity
QVQLVESGGGLVQAGGSLRLCCAASGFICGKYALGWYRQAAGNEWVLVAAITSDGRTYYADSVKGRFTISRDNPKNTVYVQMNSLKPEDTAVYYCAVDYYWYSYSGYDDYWGQGTQVTVSS	high polyreactivity
QVQLVESGRGLVQAGGSLRLSCAASGRIIRWNAMGWYRQAPGKERELVAGISGSGGSTYYADSVKGRFTISRDNAKNTVYLQMNSLKPEDTAVYYCAADHYRSRYDYWGQGTQVTVSS	low polyreactivity
QVQLVESGGGLVPAGGSLRLSCAASGSTFIPNTMGWYRQAPGKERELVAAISRRGGSTNYADSVKGRFTISRDNAKNTVYLQMNSLKPEDTAVYYCAAVSPRRYRYDYWGQGTQVTVSS	low polyreactivity
QVQLVESGGGLVQAGGSLRLSCAASGRTFWTNAMGWYRQAPGKERELVASINWSGGGTYYADSVKGRFTISRDNAKNTVYLQMNSLKPEDTAVYYCNVYSNPEKEYEYWGQGTQVTVSS	low polyreactivity

Sequence	polyreactivity (PSR sort gate)
QVQLVESGGGLVQAGGSLRLSCAASGFTFWLYTMGWYRQAPGKERELVAAISWSGGSTYYADSVKGRFTISRDTAKNTVYLQMNSLKPEDTAVYYCNALYVGYYDSMGYWGQGTQVTVSS	high polyreactivity
QVQLVESGGGLVQAGGSLRLSCAASGITFFYYAMGWYRQAPGKEMELVAAIRYYGTSTYADSVKGRFTISRDNAKNTVYLQMNSLKPEDTAVYYCAAVFWFVGSLYDYWGQGTQVTVSS	low polyreactivity
QVQLVESGGGLVQAGGSLRLSCAASGSIFSYNAMGWYRQAPGKERELVAAITWSGGSTYYADSVKGRFTISRDNAKNTVYLQMNSLKPEDTAVYYCAAVYDDYSTSVGYSPEYDYWGQGTQVTESS	high polyreactivity
QVQLVESGGGLVQAGGSLRLSCAASGFTFYANAMGWYRQAPGKERELVAAITQGGDSTYFADSVKGRFTISRDNAKKSVYLQLNSLKREDTAVYYCNTDLLCEYDYWGQGTQVTVSS	low polyreactivity
QVQLVESGGGLVQAGGSLRLSCAASGITFHGNTMGWYRQAPGKERELVAGISTSGSITYYADSVKGRFTISRDNAKKTVYLQMNSLKPEDTAVYYCAAVSHATQIAERGYWGQGTQVTVSS	low polyreactivity
QVQLVESGGGLVQAGGSLRLSCAAYGSTFYANAMGWYRQAPGKERELVAAISSGGSTYYADSVKGRFTISRYNAKNTVYLQMNSLKPEDTAVYYCAKPFYSYRYGFGYWGQGTQVTVSS	low polyreactivity
QVQLVESGGGLVQAGGSLRLSCAASGFIFLSYAMGWYRPAPGKERELVAAISGRGGSTYYADSVKGRFTISRDNAKNTVYLQMNSLKPEDTAVYYCAARLYRYNYDYWGQGTQVTVSS	high polyreactivity
QVQLVESGGGLVQAGGSLRLSCAASGRTLERYSMGWYRQAPGKEREFVAAIRWSGGSTYYADSVKGRFTISRDNAKNTVYLQMNSLKPEDTAVYYCNADWQSYYWAGDGYDYWGQGTQVTVSS	low polyreactivity
QVQLVESGGGLVQAGGSLRLSCAASGSTFGYNAMGWYRQAPGTERELVAAISSRGGSTYYADSVKGRFTISRDNAKNTVYLQMNSLKPDDTAVYYCAADPPNGAEYYWGQGTQVTGSS	high polyreactivity
QVQLVESGGGLVQAGGSLRLSCAASGNTLRYNVMGWYRQAPGKERELVAAISGGGSTSYTDSVKGRLTISRDNAKNTVYLQMNSLKPEDTAVYYCATRSFVGGRGRDSDYWGQGTQVTVSS	low polyreactivity
QVQLVESGGRLVQAGGILRLSCAASGLTFADNAMGWYRQAPGKERELVATISYSGGSTYYADSVKGRFTISRDNAKNTVYLQMNSLKPEDTAVYYCATVWETKAYSRIQWYYYWGQGTQVTVSS	low polyreactivity
QVQLVESGGGLVQAGGSLRLSCAASGFTFFGYAMGWYRQAPGKERELVATISDTGGSTYADSVKGRFTISRDNAKNTVYLQMNSLKPEDTAVYYCNARSVFYSMDYWGQGTQVTVSS	low polyreactivity
QVQLVESGGRLVQAGGSLRLSCAASGSIFVKYAMGWYRPAPGKERELVAAISGSGGSTYYADSVKGRFTISRDNAKTTVYLEMNSLKPEDTAVYYCAADDYFYSGRYGFEFWGHGTQVTVSS	low polyreactivity
QVQLEESGRGLVQAGGSLRLSCAASGFTFSLYAMGWYRQAPGKERELVAAISSRSGSTFYADSVKGRFTISRDNAKNTVYLQMNSLKPEDTAVYYCAARRDWLGGYWGQGTQVTVSS	high polyreactivity
QVQLVESGGGLVQAGGSLRLSCAASGSTFTVNAMGWYRQAPGKERELVAVIRKSGTSTYYADSVKGRFSISRDNAKNTVYLQMNSLKPEDTAVYYCAAGGPSTLDDYWGQGTQVTVSS	low polyreactivity
QVQLVESGGGLVQAGGSLRLSCAASGSIIPYNAMGWYRQAPGKERYLVATISSGGSTNYADSVKGRFTISRDNAKNTVYLQMNSLKPEDTAVYYCAADVIVFYYAPNYWGDIEYGYWGQGTQVTVSS	low polyreactivity
